Assay: soluble fraction after stress (log2 fold change); higher = more stays soluble; pooled small domains, quantitative proteomics
Settings: stress: 50 degC
Method in brief: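 Pooled custom libraries of small protein domains were measured in a high-throughput format, with quantitative proteomics as the read-out. Each library was stressed at 50°C. Aggregation propensity is given as the base-two logarithm of the fold change in how much of each protein stays soluble after the stress. Higher values mean a larger share of the protein remains in solution.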

| Sequence | soluble fraction (log2) |
| --- | --- |
| HMQPKKLNMYYDYVRQLLESHPYLSAAQIEDRLKEEFTELPMVHSKTVFNFVENIRLQHGINKHA | -0.152 |
| HMKEHDTLALRLTAILRKLNDGEKLVPRELAEEFNVGIRTIQRDLTERLSFLDLEKTNGAYSLPTRNL | -0.428 |
| HMTPDDSYIAGYAAGILKHQFLIDAPELIVRNGTITIPADKVSAGDRAKVVQILSGIPGVTRVEVG | -0.0502 |
| HMVNPHPVYRSWGLLYVEARDGDSLESIAKEFGFSVKKLAKYNEVPKDYPLEAGDIVYLEKKKK | -1.59 |
| HMKPDSEFTSQDLWQNDLAGTGSAAYRRDKMGALLGIGYGNAKRFLERLNSYGVTRSEFDEALAQLGE | -0.0612 |
| HMTTQVPYTAKLININGGSVVNFRKEPGMNTTIIRTYPVGTEVTVLETGVNWSKVEIDGVTGYVSSYFL | -0.699 |
| HMARLEELSNGSIVEGLLSGEAVTVVSTKWYGSSSMEVFYKTNRGSTGSQILYREDEPSLTVLEKS | -0.32 |
| HMNWQLITDPKELRELVQKTIADNEAGTSRLREGDMGPLEFLTGIIMKKTRGLADPTMVKALLKEELNI | 0.132 |
| HMTGIELLSHREHQVYDLLTQGRTVTEIGAQLNLAPNTVSTYRARILEKTGTKNDVELALYAQRH | -0.209 |
| HMQQELEEMESGNLVRTAIDSLPINQRTAFILSAYEELPIKEIASIMNRSEGAVEQLLQRAKMNLKKKIK | 0.347 |
| HMRQEIIEDSRKLLEESLKRYDLTYQEFIDTLKSKNMNVESTLINIIKNQSSLDLVLRNLGLIAP | -0.0959 |
| HMKQISQNIHRLRKEKGMSQEQLAQALHVTRQTVSAWERGIAQPSLDVLGQIAQLLGVEPERLLYGE | 0.153 |
| HMVDIQTGQKVRIHTSQFAGKIGNITALNVKSAELPNGIRTATASILMQSNENVMLPVSNFDIIE | 0.0434 |
| HMHLEKGEVVVPDLKGLTMRQVGELLGKLNLRYSFSGTGLAVKQFPESGQIVNQGDIIEVIF | -0.138 |
| HMTQSPLHWSHRPIDLSELLTYLDRDGAFVYASGHKAPFTEVVRGFEHLLNIRLGDPRDVKRSVLQR | -0.369 |
| HMQFSAVVLDMETRRQVAGVAVYINPKGVVKTDMRGRFVIDGAFNSVTLVRQGYESLTLERSEMTDSIWM | -1.65 |
| HMSGVSESIEKKIQYLLLEKPLPLHDLIEAIEIGKEEDRLKVLRSLMDSDTVKIEDDLYHWNA | -0.0841 |
| HMNPSKEFNMSDLLKAKMVGDVSAAKRREKAGALLHIGYGNAKTFLKKLNHFSISREEWDKVIAAMEEF | -0.743 |
| HMTPVYLNARQKQILAFLKREEPAKVGDIAHALKTISINTLKKDLLYLRQKNLIESHGVLKGTIYTVK | -1.41 |
| HMIIIPKKDYDVSQLDNLVSWLKDRGLEVHISRGENLTVIGLIGDTSKIDIDLIRSLDVVEEVKRIQ | -0.326 |
| HMDSAQLARWAATILAQNGRKITPSTMNLFLERVGDDMENIRMELEKLISYTMGSEVVTAEDVKVITTVQ | -0.569 |
| HMVEMPEVGVKVRIEVESHNGSTNFEGIVLHPASKGHLTLKLINGYNASYLIEEIRNLEIIDSS | -0.271 |
| HMDIVGAINKIESMKQDRYLAMHPYSITHSADGYYRTYLPADDGKRKQIKKKSKSDLEKVVIDYWTKRS | 0.0365 |
| HMGVGTTDERLAVLNQIASRQTEALEKLGPNNPLVGLGQIRNTLSKMLEISGYPDSNQFFKQVPLDYEPPP | 0.173 |
| HMGPFYFDQDGKAYSGLLNRNGEILYFADPFNAAVKNTTKTIDGKTYTFNQNGRATSIDGIPLEPP | 0.142 |
| HMGIKAADIVTNDIQFNTQAQFDKYKDLYPTLGWGNYDPNKTYTMQGFKNKLKPNELFTGTPNLKIEDT | 0.141 |

| Sequence | soluble fraction (log2) |
| --- | --- |
| HMNLLGDNIRKLRLEKGLGLNEVARLANITGGYLSSIENNKRTNVGTEILESIAKAIGVSVSDFYL | -0.0298 |
| HMAYQQITIKANVVNVRQGPGLSYDVMSQANKGETMNVISQKNNWYQVRLSGDKIGWVASWLVDNT | -1 |
| HMELNEMEAWSLVSKALRNGTYGAVEEFSRLPPTVQEAVGNPDNLRNWATSDYKAIETVIQSNFIKTY | -0.12 |
| HMAGVSVTSLTTFWRLAADTPDTPSGADDPSGWSRTEPSIPDGYEGKLYRTIRTIMSDGTATWTSPD | -0.357 |
| HMDKEVMEAVLRILYDDDFNPDQRDAILYFFVQELDQRTISEITGAKIGTVKKRIHDGLKKLRQKLAKEDL | -1.36 |
| HMNQSEMIGSRLKEERLQQKLTLKQLSEKVGLSIGYLSQVERGYGTLSLSALKKLSSALGLEMSTFFD | -0.992 |
| HMDGEAQTYVEYGKWFPADLPLEAVRQLADGVPVTKELVAALNPRRSEWEEIKAGLDKIGYPNELL | 0.0308 |
| HMNGYGALVRLGRSRGWVTVEEINDHLPESAVRTAENVQEITEALGRLSIKVFETRPDEDDLLIT | -0.0632 |
| HMDKDTFGEFENVKLTEEEYNKLVEKLGENNTKLMIEELSTGIASKGYKYKSHYATILSWSRRRVTKLQER | 0.0444 |
| HMEIFYGDDRVYTVSLHGQNNFPFRKKTSDFDYGFEDGTGDEEYLRVLDVTLSRLENEQFDLLFFQAGV | -0.203 |
| HMDQNDYMLTRIRNGQMRNKVSVSMPASKIKSAIAAVLKDEGYIENFALNDSSGKPSLIVNLKYYAGQPV | -0.0135 |
| HMGEENLKYPLLTDGSVKTTVLEAIDKDEKWLREELAKQGYDDLSKLFLVDYLGGQLVVTPY | 0.277 |
| HMDTRKEREIALYEAALRLIASGVNPAAMKVQQIADEAGIGKGTVYEYFASKEEILHGMALH | -0.241 |
| HMLGIGANVQKIAQERKISLKELSRRAGIPYTTIYNMVKRDSSRVSPENLQKLADALGVEIGKLYG | 0.0652 |
| HMAPSIPSGADIRAAREAAGINLRDFARIVDGPGIAIWSRYETGTPIRVKSISPEVWQKVRDFISQHG | -0.826 |
| HMIIVMASSKKEDVAHVVHKIEELGYKAHVIVGVERTVVAAVGDERGKERLISLEALPHVEKVFPILK | -0.055 |
| HMNNYFPAYKGSATSIAPALKQMGVNNSYAYRSKIAAVNNITGYRGTPAQNTQMLNLLKQGRLIK | 0.362 |
| HMSLSVEESYKLLDISPSAGDEEITKKFRLLALKYHPDKNRSKIEWANNIMSRLNQAYSVIMSSRFESNAE | -0.476 |
| HMVTYELTEDEKFIVSLLEKENSQPIGALKDKSALSGKKWDAAMKGLAKHGLTKVVVDGDNKLVVL | -0.00965 |
| HMDIEELLSRSTDRLSRQTEIRRLLADAQGRPNISSLARRFKVARRTVIRDLQELIRRGEVPPEIYPK | -0.744 |
| HMRPIDEVFGFFSRPENLTVITPSNLHFNILTPRPLEMKQGAVIDYTIKIFKVPIHWRTLITTYDPPFKFV | -0.288 |
| HMHSDSEIEKGYTDDGQKLSNVNGVYMTKSEMYNKGIVEKDPNTGEEVMGRNRVNPVTGELE | 0.164 |
| HMNTSMIEHMDKSTFIRFVFTNPVTHDQAVAKLMEKHMWFSTEEKAEAEIDKLLNKTNSLIESGGKLTW | 0.0337 |
| HMFAAIFADDSGFTTRSKRFGPYVEEIAADWQAVKQLSDEDAKQALVPLVKKIELALSTLQQFVSSV | -0.244 |
| HMDSKKNLLGKNGLAFTTLRPAGTVLIDGQRHDVISNGDMIPKGATVRVIAIEGASITVEALPD | 0.155 |
| HMPTEPTARELEVTTLLAQGLSNREIAGALFISEHTVRNHLGHVFSKLGVSSRTQAVVRAGQLGWLR | -2.14 |

| Sequence | soluble fraction (log2) |
| --- | --- |
| HMKRDYELPAFIETYLKKNHVAIDTKSAAMIAEHIGADLSRLISELDKVMISLPDDDRRVTPDVVEREI | -0.00533 |
| HMQQPVAYSEFVQSVNDRQIREAQIQGERIVATDNNGNRMTVIWPENDTKLLDELVQNGVLTSIQE | 0.12 |
| HMGDKRPIAVGDYVKLEGQDTPGQVLSISGKNATVGFGMLKTTVKLDRLRHTMAKPQTGASAGVR | 0.178 |
| HMSWRWVPVSGAYTTSALEAAGLTRAFDDQAAAEEWLGLFFDDLLREGVGEVSLYEEDRLVYGPMSL | -3.1 |
| HMARTIINLPLRNSVDESYNTTVNILQANGFKEVSYNGETVWKKGTGLLTAMQYIKIEFTDTTLVVSGWVQ | ≥ 0.62 |
| HMDDFPLKRGSKGNRVTLLQNALVKKYGAGILPKYGVDGMFGKEVEAALVHAKIPTTINEANYTKIV | 0.0897 |
| HMIVVLKHGVTEQQMRNLIAWFKDQGVDVHVSRGIYQTVLGLVGDTSDIDVDLLRMLDIVDAVKRIT | -1.76 |
| HMADIGRMKELIDILNRASAVYYQGKDEIMSNFEYDKLYDELVSLEKESGLVLAGSPTQKVGY | 0.153 |
| HMEKVDAISQSILDVLKKNNGYLAVTDKSDPDEIYGLFQISKKTFKKAIGSLYRDRLISIEEEGIRLR | 0.116 |
| HMSTIAAMADPRAWALEMLGFPPGTVKPSKREIQVRFRESLRDVHPDHGGDSRTASASINDLSEARRVLLS | -0.188 |
| HMSAEKDGEWLTLTEAAKHLQVSPHVIRRLIQTGALPAEQVMRGAPHQIRAADLDTDRVKTMIAR | 0.193 |
| HMRDTDAEVTYKLNEPFKTMGSVSVEGKVLEFAGSKWFARAAEFASNTEVYPLAKNRVRLTFTFHGLTAP | 0.105 |
| HMDIIIEEGIDESLSTDDAILDLLGRASDAFSNAQKALLEGDLGSYQKLIEQAERLVKKATELLGENN | -0.0938 |
| HMLKHNLLSELSRIEGVGAVKRKALMDKFGTVENIKRASEEELSEVAGIGPTLARTIKEQMNKDE | -0.184 |
| HMNTTLQLDTILRLEKNAHLLENFVRAGFTDSELGKLTDADLLQIGVPKIGDRRRLLAALAERAH | -0.589 |
| HMDDYRSLRGQEKAAIFLMSLSQEQAAKIFANLDDEEIKEISQAMSSLGTVGSEIIERLFVEFAEQVSS | -1.06 |
| HMQRGRTFSIVLNWKGRLLSTQMFFPQFTRPTKEQVTFEINKVYPGAMVYYYNPIEKDPSQPLV | -1.07 |
| HMVEVPYSEFLKELDAGNVKDVYVSNGESQIQFTKKDQKQWNLSYKTGPIPGDDLVKRLQNADVENFT | 0.0879 |
| HMVEPIKAPMPGMVLKILVEPGQQIEKGQGVLILEAMKMENVLKSSAAATVKSIKVSEKSAVEKGAILVEL | -0.109 |
| HMSRAAQRLFMSQPPLSRHIRQLEDRLGVTLFVRHTRGLTLTEDGQRVLEMVRPLLDLQDKTYAALSQLT | 0.382 |
| HMQPGDRVDALIVGVSGEHVFLDVGGKSEGVMAAAELRNEAGELSAAEGDRVQVYLLSNRNGELIFTA | 0.00616 |
| HMNTLLYAPKVSPNPFTPNADGINDVVNISYKLLRVISAVPISVEVFDLSGRLIKTLYSGVDPLGEY | 0.158 |
| HMNLWIDNTQVINDWTEGASERSGSIYLTAGVKPIKMQYFDSVLNAKAILRWQGPGINKSVVPSSALTPG | -0.855 |
| HMWSLLVILQLREGGQRFSQLQRAIPDISQRMLTQTLRKLERDGLVSRKVTPSTPPRVDYAITELGH | -1.04 |
